Experimental data from publication PMC9668932.

Molecular target: heat shock protein HSP 90-beta, full length, His6-tagged (human) (UniProt P08238)
Experiment: cryo-EM structure; ternary Hsp90-XAP2-AHR complex, co-expressed in Sf9 and co-purified, with indirubin at 5x molar excess; 20 mM Bis-Tris-HCl pH 7.0, 50 mM NaCl, 10 mM KCl, 10 mM MgCl2, 20 mM Na2MoO4, 2 mM BME; global map 2.85 Å, focused map 4.07 Å

heat shock protein HSP 90-beta, full length, His6-tagged, P08238 1-724 (natural protein; other documents disagree on this pair), sequence (P08238 whole entry): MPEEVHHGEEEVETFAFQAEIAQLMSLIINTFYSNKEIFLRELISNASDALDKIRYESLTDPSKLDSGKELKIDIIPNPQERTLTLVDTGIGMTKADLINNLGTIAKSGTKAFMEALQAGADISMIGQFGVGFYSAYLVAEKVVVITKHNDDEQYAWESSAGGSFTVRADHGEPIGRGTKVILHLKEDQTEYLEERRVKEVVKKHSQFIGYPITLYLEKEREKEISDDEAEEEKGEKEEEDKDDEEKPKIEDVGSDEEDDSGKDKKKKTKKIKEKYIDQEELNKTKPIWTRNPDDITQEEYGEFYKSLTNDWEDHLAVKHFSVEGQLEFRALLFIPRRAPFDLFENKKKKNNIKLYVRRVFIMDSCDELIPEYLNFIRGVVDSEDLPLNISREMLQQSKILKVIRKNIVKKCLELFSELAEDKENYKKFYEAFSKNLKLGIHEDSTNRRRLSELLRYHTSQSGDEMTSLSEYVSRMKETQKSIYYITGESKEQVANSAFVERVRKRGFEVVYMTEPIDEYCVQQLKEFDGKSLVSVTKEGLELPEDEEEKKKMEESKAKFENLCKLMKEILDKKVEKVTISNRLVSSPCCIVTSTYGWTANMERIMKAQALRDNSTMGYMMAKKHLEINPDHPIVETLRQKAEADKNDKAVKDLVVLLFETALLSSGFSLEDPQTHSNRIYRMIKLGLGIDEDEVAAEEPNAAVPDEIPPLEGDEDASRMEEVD

stoichiometry N: 2
Substance: heat shock protein HSP 90-beta, full length, His6-tagged, P08238 1-724 (natural protein; other documents disagree on this pair)
